Article PMC13507205, “FAIMS-GPF XL-MS: crosslinking-mass spectrometry based on gas-phase fractionation” (Nature Communications, 2026)

Biological target: T1, CDK7 kinase fused to a C-terminal Strep-tag II sequence (UniProt P50613 1-346)
T1 construct: No cleavage of the tag is described; The theoretical mass of the trimer (113,879 Da with one phosphorylation) would fit whole chains; source: Sf21 cells, baculovirus, purified as the CAK complex (Strep-Tactin XT, eluted with biotin)
Assay: cross-linking; purified CAK complex (co-expressed, co-purified) at 0.7 mg/mL in 20 mM Hepes pH 8, 150 mM KCl, 1 mM EDTA, 1 mM DTT, 50 mM biotin; DSSO at 200 molar excess, 45 min, RT; three replicates; 4-CV FAIMS-GPF nLC-MS/MS; XLs kept if in at least 2 of 3 replicates
Settings: both partners purified

T1 sequence (P50613 whole entry, the tested form may be a part): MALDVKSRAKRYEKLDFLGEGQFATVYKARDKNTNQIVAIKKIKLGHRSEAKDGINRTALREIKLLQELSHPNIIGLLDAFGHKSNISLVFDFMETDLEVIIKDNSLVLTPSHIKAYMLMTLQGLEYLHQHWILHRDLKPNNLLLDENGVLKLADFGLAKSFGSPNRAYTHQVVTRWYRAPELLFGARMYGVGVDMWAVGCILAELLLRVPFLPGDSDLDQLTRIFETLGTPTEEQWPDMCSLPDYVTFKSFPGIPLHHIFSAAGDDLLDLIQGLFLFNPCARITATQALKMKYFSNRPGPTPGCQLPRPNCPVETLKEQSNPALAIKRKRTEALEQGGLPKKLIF

B1: MAT1 (natural protein, UniProt P51948 1-309, looked up)
chain: MDDQGCPRCKTTKYRNPSLKLMVNVCGHTLCESCVDLLFVRGAGNCPECGTPLRKSNFRVQLFEDPTVDKEVEIRKKVLKIYNKREEDFPSLREYNDFLEEVEEIVFNLTNNVDLDNTKKKMEIYQKENKDVIQKNKLKLTREQEELEEALEVERQENEQRRLFIQKEEQLQQILKRKNKQAFLDELESSDLPVALLLAQHKDRSTQLEMQLEKPKPVKPVTFSTGIKMGQHISLAPIHKLEEALYEYQPLQIETYGPHVPELEMLGRLGYLNHVRAASPQDLAGGYTSSLACHRALQDAFSGLFWQPS
notes: MAT1, subunit of the CAK heterotrimer; source: Sf21 cells, baculovirus, purified as the CAK complex (Strep-Tactin XT, eluted with biotin)
B1: binds.
